{
  "source": "paper PMC11617674",
  "about": "“The activity of the ribonucleotide monophosphatase UmpH is controlled by interaction with the GlnK signaling protein in Escherichia coli” (The Journal of Biological Chemistry, 2024)",
  "biological_target": "T1, UmpH (ribonucleotide monophosphatase), untagged recombinant (E. coli, UniProt P0AF24 1-250)",
  "T1 construct": "UmpH (NagD), ribonucleotide monophosphatase of E. coli; also called NagD; untagged UmpH; source: E. coli BL21 (λDE3), pET29a, purified (ammonium sulfate, gel filtration)",
  "T1 sequence (looked up)": "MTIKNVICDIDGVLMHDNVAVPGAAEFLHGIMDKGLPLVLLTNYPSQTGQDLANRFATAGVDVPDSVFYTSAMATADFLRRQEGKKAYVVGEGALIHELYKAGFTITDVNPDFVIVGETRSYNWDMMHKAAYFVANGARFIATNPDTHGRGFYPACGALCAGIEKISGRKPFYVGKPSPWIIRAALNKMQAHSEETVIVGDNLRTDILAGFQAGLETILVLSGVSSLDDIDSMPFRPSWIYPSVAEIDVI",
  "experiment": "pull-down; His-PII on Ni2+ magnetic beads, untagged UmpH; 50 mM Tris-HCl pH 8.0, 0.1 M NaCl, 5 mM MgCl2, 10% glycerol, 20 mM imidazole; room temperature; without nucleotides or with ATP or ADP (effectors as indicated); SDS-PAGE, Coomassie",
  "details": "both partners purified",
  "data": [
    {"binder": "His-GlnB from Azospirillum brasilense (natural protein, UniProt P21193 1-112, looked up, GlnB, PII protein of Azospirillum brasilense; also called GlnBAb; His-AbPII; not shown: His tag, N-terminal, kept) MKKIEAIIKPFKLDEVKEALHEVGIKGITVTEAKGFGRQKGHTELYRGAEYVVDFLPKVKIEVVMEDSLVERAIEAIQQAAHTGRIGDGKIFVTPVEEVVRIRTGEKGGDAI", "values": [
      {"measurement": "binding result", "value": "binds"}
    ]}
  ]
}
